± gives the standard deviation of the averaged measurements.
Experiment: total protein half-life in vivo (active degradation + dilution); higher = more stable protein
[1] = E. coli NCM3722 delta-clpP delta-lon delta-hslV, growth: N-lim chemostat, doubling time 6 h
[2] = E. coli NCM3722 delta-clpP, growth: N-lim chemostat, doubling time 6 h
[3] = E. coli NCM3722 delta-lon, growth: N-lim chemostat, doubling time 6 h
[4] = E. coli NCM3722 delta-smpB, growth: N-lim chemostat, doubling time 6 h
[5] = wild type E. coli NCM3722, growth: C-lim chemostat, doubling time 3 h
[6] = wild type E. coli NCM3722, growth: C-lim chemostat, doubling time 6 h
[7] = wild type E. coli NCM3722, growth: C-lim chemostat, doubling time 12 h
[8] = E. coli NCM3722 delta-hslV, growth: N-lim chemostat, doubling time 6 h
[9] = wild type E. coli NCM3722, growth: N-lim chemostat, doubling time 6 h
[10] = wild type E. coli NCM3722, growth: N-lim chemostat, doubling time 12 h
[11] = wild type E. coli NCM3722, growth: P-lim chemostat, doubling time 6 h
[12] = wild type E. coli NCM3722, growth: P-lim chemostat, doubling time 12 h

Row | Sequence | total protein half-life in vivo [1] | total protein half-life in vivo [2] | total protein half-life in vivo [3] | total protein half-life in vivo [4] | total protein half-life in vivo [5] | total protein half-life in vivo [6] | total protein half-life in vivo [7] | total protein half-life in vivo [8] | total protein half-life in vivo [9] | total protein half-life in vivo [10] | total protein half-life in vivo [11] | total protein half-life in vivo [12]
1 | MYFLNDLNFSRRDAGFKARKDALDIASDYENISVVNIPLWGGVVQRIISSVKLSTFLCGLENKDVLIFNFPMAKPFWHILSFFHRLLKFRIVPLIHDIDELRGGGGSDSVRLATCDMVISHNPQMTKYLSKYMSQDKIKDIKIFDYLVSSDVEHRDVTDKQRGVIYAGNLSRHKCSFIYTEGCDFTLFGVNYENKDNPKYLGSFDAQSPEKINLPGMQFGLIWDGDSVETCSGAFGDYLKFNNPHKTSLYLSMELPVFIWDKAALADFIVDNRIGYAVGSIKEMQEIVDSMTIETYKQISENTKIISQKIRTGSYFRDVLEEVIDDLKTR | 6.47 h | 7.29 h | 5.02 ± 0.14 h | 4.15 ± 0.31 h |  |  |  |  |  |  |  | 
2 | MFNRIRISTTLFLILILCGILQIGSNGMSFWAFRDDLQRLNQVEQSNQQRAALAQTRAVMLQASTALNKAGTLTALSYPADDIKTLMTTARASLTQSTTLFKSFMAMTAGNEHVRGLQKETEKSFARWHNDLEHQATWLESNQLSDFLTAPVQGSQNAFDVNFEAWQLEINHVLEAASAQSQRNYQISALVFISMIIVAAIYISSALWWTRKMIVQPLAIIGSHFDSIAAGNLARPIAVYGRNEITAIFASLKTMQQALRGTVSDVRKGSQEMHIGIAEIVAGNNDLSSRTEQQAASLAQTAASMEQLTATVGQNADNARQASELAKNAATTAQAGGVQVSTMTHTMQEIATSSQKIGDIISVIDGIAFQTNILALNAAVEAARAGEQGRGFAVVAGEVRNLASRSAQAAKEIKGLIEESVNRVQQGSKLVNNAAATMIDIVSSVTRVNDIMGEIASASEEQQRGIEQVAQAVSQMDQVTQQNASLVEEAAVATEQLANQADHLSSRVAVFTLEEHEVARHESVQLQIAPVVS |  | 6.16 h |  | > 8 h | 1.87 ± 0.38 h | 3.01 ± 0.33 h | 4.13 ± 0.71 h |  |  |  |  | 
3 | MKSATSAQRPYQEVGAMIRDLIIKTPYNPGERLPPEREIAEMLDVTRTVVREALIMLEIKGLVEVRRGAGIYVLDNSGSQNTDSPDANVCNDAGPFELLQARQLLESNIAEFAALQATREDIVKMRQALQLEERELASSAPGSSESGDMQFHLAIAEATHNSMLVELFRQSWQWRENNPMWIQLHSHLDDSLYRKEWLGDHKQILAALIKKDARAAKLAMWQHLENVKQRLLEFSNVDDIYFDGYLFDSWPLDKVDA | 4.94 ± 0.91 h | 4.94 ± 0.29 h | 3.04 ± 0.38 h | 2.82 ± 0.23 h | 2.21 ± 0.16 h | 3.86 ± 0.058 h | 5.88 ± 0.11 h | 2.75 ± 0.15 h | 2.83 h | 3.494 ± 0.022 h | 3.22 ± 0.098 h | 5.72 ± 0.14 h
4 | MGMLEARELLCERDERTLFSGLSFTLNAGEWVQITGSNGAGKTTLLRLLTGLSRPDAGEVLWQGQPLHQVRDSYHQNLLWIGHQPGIKTRLTALENLHFYHRDGDTAQCLEALAQAGLAGFEDIPVNQLSAGQQRRVALARLWLTRATLWILDEPFTAIDVNGVDRLTQRMAQHTEQGGIVILTTHQPLNVAESKIRRISLTQTRAA | 6.22 h |  |  | 5.33 h |  |  |  |  | 5.94 ± 0.86 h |  |  | 
5 | MNIFDHYRQRYEAAKDEEFTLQEFLTTCRQDRSAYANAAERLLMAIGEPVMVDTAQEPRLSRLFSNRVIARYPAFEEFYGMEDAIEQIVSYLKHAAQGLEEKKQILYLLGPVGGGKSSLAERLKSLMQLVPIYVLSANGERSPVNDHPFCLFNPQEDAQILEKEYGIPRRYLGTIMSPWAAKRLHEFGGDITKFRVVKVWPSILQQIAIAKTEPGDENNQDISALVGKVDIRKLEHYAQNDPDAYGYSGALCRANQGIMEFVEMFKAPIKVLHPLLTATQEGNYNGTEGISALPFNGIILAHSNESEWVTFRNNKNNEAFLDRVYIVKVPYCLRISEEIKIYEKLLNHSELTHAPCAPGTLETLSRFSILSRLKEPENSSIYSKMRVYDGESLKDTDPKAKSYQEYRDYAGVDEGMNGLSTRFAFKILSRVFNFDHVEVAANPVHLFYVLEQQIEREQFPQEQAERYLEFLKGYLIPKYAEFIGKEIQTAYLESYSEYGQNIFDRYVTYADFWIQDQEYRDPDTGQLFDRESLNAELEKIEKPAGISNPKDFRNEIVNFVLRARANNSGRNPNWTSYEKLRTVIEKKMFSNTEELLPVISFNAKTSTDEQKKHDDFVDRMMEKGYTRKQVRLLCEWYLRVRKSS [P0ACY3] | 3.5 ± 0.94 h | 2.691 ± 0.0021 h | 2.38 ± 0.24 h | 2.24 ± 0.06 h | 2.76 ± 0.21 h | 3.41 ± 0.25 h | 4.77 ± 0.46 h | 2.49 ± 0.037 h | 2.48 ± 0.11 h | 3.09 ± 0.1 h | 4.703 ± 0.016 h | 7.66 ± 0.77 h
6 | MTQENEIKRPIQDLEHEPIKPLDNSEKGSKVSQALETVTTTAEKVQRQPVIAHLIRATERFNDRLGNQFGAAITYFSFLSMIPILMVSFAAGGFVLASHPMLLQDIFDKILQNISDPTLAATLKNTINTAVQQRTTVGLVGLAVALYSGINWMGNLREAIRAQSRDVWERSPQDQEKFWVKYLRDFISLIGLLIALIVTLSITSVAGSAQQMIISALHLNSIEWLKPTWRLIGLAISIFANYLLFFWIFWRLPRHRPRKKALIRGTFLAAIGFEVIKIVMTYTLPSLMKSPSGAAFGSVLGLMAFFYFFARLTLFCAAWIATAEYKDDPRMPGKTQP | 4.96 ± 0.058 h | 4.8 ± 0.18 h | 3.56 ± 0.56 h | 4.74 ± 0.46 h | 2.41 ± 0.45 h | 4.07 ± 0.12 h | 7.18 ± 1.4 h | 3.99 ± 0.46 h | 4.21 ± 0.15 h | 6.7 ± 0.46 h | 4.02 ± 0.11 h | 6.92 ± 0.24 h
7 | MLDKLRSRIVHLGPSLLSVPVKLTPFALKRQVLEQVLSWQFRQALDDGELEFLEGRWLSIHVRDIDLQWFTSVVNGKLVVSQNAQADVSFSADASDLLMIAARKQDPDTLFFQRRLVIEGDTELGLYVKNLMDAIELEQMPKALRMMLLQLADFVEAGMKTAPETKQTSVGEPC | 3.71 ± 1.3 h | 2.5 h |  | 0.825 ± 0.014 h | 0.352 ± 0.048 h |  |  |  |  |  | 0.825 h | 
8 | MDKIFVDEAVNELQTIQDMLRWSVSRFSAANIWYGHGTDNPWDEAVQLVLPSLYLPLDIPEDMRTARLTSSEKHRIVERVIRRVNERIPVAYLTNKAWFCGHEFYVDERVLVPRSPIGELINNKFAGLISKQPQHILDMCTGSGCIAIACAYAFPDAEVDAVDISPDALAVAEQNIEEHGLIHNVIPIRSDLFRDLPKVQYDLIVTNPPYVDAEDMSDLPNEYRHEPELGLASGTDGLKLTRRILGNAADYLADDGVLICEVGNSMVHLMEQYPDVPFTWLEFDNGGDGVFMLTKEQLIAAREHFAIYKD | 5.46 ± 2.1 h | 3.84 ± 0.055 h | 3.97 ± 0.38 h | 3.9 ± 0.11 h | 2.81 ± 0.12 h | 5.74 ± 0.41 h | 10 ± 0.21 h | 3.656 ± 0.0091 h | 3.85 ± 0.054 h | 6.16 ± 0.26 h | 5.56 ± 0.2 h | 11 ± 1.2 h

Source: the supplement of paper PMC11246515
